# Measurements taken from the RNAGym collection of RNA variant scans (doi:10.1073/pnas.2313332121).
# This sample holds only a part of the variants without activity.
# B1: TPR 5TU (parent)
# chain: GGAUCUUCUCGAUCUAACAAAAAAGACAAAUCUGCCACAAAGCUUGAGAGCAUCUUCGGAUGCAGAGGCGGCAGCCUUCGGUGGCGCGAUAGCGCCAACGUUCUCAACUAUGACACGCAAAACGCGUGCUCCGUUGAAUGGAGUUUAUCAUG
# Variants of: B1
# Test: polymerase ribozyme fitness, log enrichment relative to wild type (log ratio); higher = more active; in vitro selection for triplet polymerase activity
# Procedure, shortened: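 Fitness compares each genotype's enrichment to that of the wild type on a logarithmic scale, averaging replicates with inverse-variance weights. The logarithm is base 2. Enrichment came from Illumina sequencing of input and output libraries after one triplicate round of in vitro selection, which included frozen incubation at −7 °C, of PCR-built, transcribed mutant libraries of each subunit of a heterodimeric triplet polymerase ribozyme. Only genotypes with ≥10 input reads and ≥1 read per output were kept.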
row,Variant,polymerase ribozyme fitness (log ratio)
1,A60C C85U A119C G124A,-1.25
2,G58C C87A G136A U144G,≤ -4.2
3,G59U C132A,-2.09
4,G58C C87U C114U,-2.21
5,G59U C69G C95U C116G,-1.81
6,G59A A138C U146C A150G,≤ -4.2
7,G59A G133U G140C,-3.69
8,A60U C116U G141A,-0.772
9,C57G U148A,-3.25
10,G58C G126U,-0.916
11,G59C C95U A106G C116A,0.288
12,G58A A73G C85G A98C,-1.02
13,G59U C95A C96G A119U C123U C149U,-3.57
14,C57U C87G A107C C108U U135A U151C,≤ -4.2
15,G58C A107C U130G A137G A147G,≤ -4.2
16,G59A U77C,-3.69
17,G58C U77G C87G G152A,≤ -4.2
18,A60G C108U G126U,-3.26
19,A60G C85A U104A A142U,-3.14
20,A60C G81U C87U,-2.07
21,G58A G141C,-0.279
22,G58A G141U,0.0168
23,G59C U82C,0.0118
24,C57U G68A,-3.56

row,Variant,polymerase ribozyme fitness (log ratio)
1,G59C G117A,1.39
2,G59U A73G G86A C87U A138U A150G,≤ -4.2
3,U61A A89C A106C U148A,≤ -4.2
4,C57U A142U,0.471
5,G58A A73U,-1.65
6,A60C U82A,-1.28
7,U61A C99U,-2.69
8,A60U C69A A89U,-0.419
9,A60C G71U G92C C108G G117A G124U A137C,-4.08
10,C57U U146G,-0.656
11,G59A C85A C95U C103U U134A,-3.2
12,C57U U111G,-4.17
13,G58U G83U C118U A137U,≤ -4.2
14,A60G U90C C93A A150U,-0.698
15,A60G C99G U102A U144G,≤ -4.2
16,A60G U101A G141U A147C,-4.13
17,G58A U146C,0.448
18,A60U U61A G84U G128A G140C U148C,≤ -4.2
19,C57G G59U A60G C85G A89U A97U G128A U148A,≤ -4.2
20,G58A C96G,-0.616
21,A60U G94C,-1.12
22,U61A A64C G68U G86C,≤ -4.2
23,G58U G59C U78A C108G U148A,≤ -4.2
24,A60U G84C C123G,-3.24

row,Variant,polymerase ribozyme fitness (log ratio)
1,C57U G62A C63U C87A G141A C149U,≤ -4.2
2,G58A C87U A89U A106U,-2.54
3,G58C G92U A122G,-1.45
4,C57U C63A,0.923
5,G59A C63G C69G C93U,-2.27
6,A60G C63U G94A C114U,-2.5
7,A60C G68A C95A C96G U134G U139G,≤ -4.2
8,G58A A89U G94U,-3.19
9,C57U G86U A97C,-1.82
10,U61A C87U A147C,-3.49
11,G58U C69A C85U C132G G133C G141C,≤ -4.2
12,U61A G62A,-1.48
13,C57G G59C,-0.566
14,G59A U82G G117U,0.479
15,G59U A64C G71A G117U,≤ -4.2
16,G59A G92A G128A,-4.02
17,C57U C87U C93A A107C,≤ -4.2
18,G58A G81C G84A G133C U144G,-0.672
19,G59U G94C C99A G128C C129U U130C G140U,≤ -4.2
20,G59A G71U G84U G92A A115G C118G U144C C149G,≤ -4.2
21,G58C G59C,0.523
22,C57G U82A C95G U134C,-1.35
23,A60U A97C U104C U134G U144C,-4.05
24,G58A G81A G86A C93U G112C C116U C149G,1.13

row,Variant,polymerase ribozyme fitness (log ratio)
1,A60C C99A A113G U127G,≤ -4.2
2,A60G C93U C95A U145A,-1.82
3,G59A U61A C79U G83A A121C,≤ -4.2
4,G59U C87A A97U,≤ -4.2
5,U61A C118G,-1.89
6,G59U C76U G83U U102G C123A,≤ -4.2
7,A60G G88U A97U A107G C114U,≤ -4.2
8,A60G C72U G143U,-3.39
9,G58U G84A,-0.866
10,C57U A121U C129U,-0.101
11,G59A G65C G68A U77C G133U,≤ -4.2
12,A60C G84A A91G C116U,-4.11
13,G59U G80A C85A,-0.927
14,G59C C76A U78C C87A G94C C96U G100A U144A,≤ -4.2
15,C57U U145G,-0.309
16,C57U U145A,0.046
17,G58U C123U G124C,-0.593
18,G59A A60G U134C,-0.132
19,G59U C76G A91G A106C C114U C125U G128A G143U,≤ -4.2
20,G58A A60C G74A C85G C116G C123U C149G,≤ -4.2
21,G59C C85A C95U A137C,≤ -4.2
22,G58U G80U U104G,-2.41
23,G58U U61A U135A,-1.67
24,C57U G86U C96A U109A U146A,-2.45

row,Variant,polymerase ribozyme fitness (log ratio)
1,G58A G83A U109C A115U,≤ -4.2
2,G59A G70C,-2.8
3,G58C C93A G141C,-2.47
4,C57U G84A C93U,-2.9
5,C57U G94U C99A,-1.79
6,G58A G59U C87U G136A,0.169
7,G59C U148A,-2.88
8,U61A C105G A121U,≤ -4.2
9,G58C G65C A66C U77G U102A C132U,≤ -4.2
10,C57U A107C,-3.3
11,A60U G92U A107C,≤ -4.2
12,G59A C87U A137U,≤ -4.2
13,C57U U151G,-3.63
14,G59C C87U U109G,-1.03
15,C57U A60G G133C G152U,-3.31
16,A60G C85U,-0.323
17,C57U U82G,0.0517
18,C57U G59C G83C,-1.17
19,C57U A64U G92A A138U U145G A150C,≤ -4.2
20,G59U C87U,-0.949
21,C57U G58C G86A U102A C116A,-2.47
22,G58A G83A,-0.976
23,G59A A97G,-0.633
24,C57U A73G G74A C114G U135A U151G,≤ -4.2

row,Variant,polymerase ribozyme fitness (log ratio)
1,G59A U135A G141U,-1.18
2,G59A U144C,0.0653
3,G59C A89G U139C U144C,-3.75
4,C57U G59C C69G C96A,-1.45
5,A60C G83A C108G,≤ -4.2
6,C57U G58A U104G C105U,-3.63
7,G59C A97U A106G C118G G124A U145G,-2.18
8,G58A U82G C96A A142G A147G,-3.38
9,G58C A60G C63U G84A,0.439
10,G59A C132A,-2.31
11,A60G C93U,-1.09
12,A60G C93A,-2.81
13,G59U C129G,-2.56
14,G58A A98G,0.621
15,G58A G62C U82G A106G G141C,-4.01
16,G59C A98U,0.166
17,G58A G81A C123U U146G A147G,-0.0286
18,G59U G86A G143U,-3.52
19,U61A C103U,-1.31
20,U61A A91C,≤ -4.2
21,U61A C85U A89U C118A C149U,-3.61
22,C57U G94U U127C C132U,-3.37
23,G58C G88U C105A G141C U144G U146G,≤ -4.2
24,C57U A64U G92C C105U,≤ -4.2

row,Variant,polymerase ribozyme fitness (log ratio)
1,A60G C96A,-0.165
2,G58U C96U,-0.236
3,G59C C96U,0.681
4,G59A G86U A97U C108G C116G G143C,≤ -4.2
5,C57U G84A C99A,-1.59
6,C57U C76U C129G,-3.51
7,U61A A150G,-1.15
8,C57G G83U A147U,0.219
9,A60U G141C,-1.16
10,A60U G141A,-0.304
11,G58U G81C C93G,-3.21
12,G59A U101A,0.287
13,G59C U82G G143C,-2.29
14,C57U G68A C75G C76G C87A A98U U145C,≤ -4.2
15,G58C G124C,-0.411
16,G59U C76G A110U G124C A137G,≤ -4.2
17,A60C G83A C85U U101G,-3.16
18,A60G C69U A122C U135C,-3.94
19,G59A A73G C93U A106G U144G U146C,-0.726
20,G58U C75G G81A G92U A142G U144A,≤ -4.2
21,G59C C79A C93U,≤ -4.2
22,G58C U134G A150U,-3.62
23,G59A C85G G92U C95A C116A U127G,≤ -4.2
